Experiments:
[1] = tested on: C179WT (hCIZ1 C-terminal fragment) (Homo sapiens); test: EMSA; details: 0.66 nM RNA; yeast tRNA 0.1 mg/ml; 10 mM Tris-HCl pH 7, 30 mM NaCl, 2.5 mM MgCl2, 0.1% IGEPAL CA-630, 0.1 mg/ml yeast tRNA, 1.5% RNaseOUT, 0.2 mM EDTA, 0.2 mM DTT, 30 C 20 min; 0.8% agarose/TBE …
[2] = molecular target: human CIZ1-C179Δtail (human) (UniProt Q9ULV3); test: SEC-MALS; SEC-MALLS; 100 µl of >1 mg/ml purified protein, Superdex S200 10/300 GL, cleavage buffer (50 mM Tris-HCl pH 7, 150 mM NaCl, 1 mM EDTA, 1 mM DTT), 0.5 ml/min, room temperature (20 ± 2°C)
[3] = molecular target: murine CIZ1 fragment C181 (mouse) (UniProt Q8VEH2); test: as above
[4] = molecular target: the molecule itself; test: as above

For Xist repeat E RNA probe, the binding signal (% probe shifted at 5 µM protein) [1] was 99.

For “human CIZ1-C179Δtail (from UniProt Q9ULV3-1 720-860) (domain or fragment)”, the stoichiometry N [2] was 2.

Work on “murine CIZ1 fragment C181 (from UniProt Q8VEH2 665-845) (domain or fragment)” yielded a stoichiometry N [3] of 2.

B1: human CIZ1-C179 (domain or fragment, UniProt Q9ULV3-1 720-898, looked up)
chain: EKEIAGQDEDHFITVDAVGCFEGDEEEEEDDEDEEEIEVEEELCKQVRSRDISREEWKGSETYSPNTAYGVDFLVPVMGYICRICHKFYHSNSGAQLSHCKSLGHFENLQKYKAAKNPSPTTRPVSRRCAINARNALTALFTSSGRPPSQPNTQDKTPSKVTARPSQPPLPRRSTRLKT
notes: the terminal residue is printed as Thr 898; also called hC179; C179WT; source: E. coli BL21 RP CodonPlus, purified (GSTrap, on-column PreScission cleavage, Superdex 200); not shown: GST, N-terminal, cleaved
In the case of B1, the “stoichiometry N” value [4] is reported as 2.
